According to patent US20220396788, “RECOMBINANT TRANSPOSON ENDS” (THERMO FISHER SCIENTIFIC BALTICS, UAB, published 2022):

Legend:
MuA transposase [1] = biological target: T1, MuA transposase (UniProt P07636 P07636:1-663); experiment: EMSA; 8 substitutions (1 sensitive); active (FIG. 13B); conditions: chain copies: 4 (inferred); 5' overhang
Protocol: (§1) MuA transposomes were formed in 1× Complex Assembly Buffer with DMSO. Complex assembly reaction contained equimolar ratio of transposon end (9.3 μM) and MuA transposase (1.65 mg/mL). Components were well-mixed and incubated for one hour at 30° C. After incubation, the complex assembly mix was diluted with dilution buffer (88.0% glycerol, 314.5 mM NaCl, and 2.83 mM EDTA) to the final MuA concentration of 0.919 mg/mL. Complexed MuA transposome was stored at −70° C. for at least 16 hours before use.
(§2) Complex assembly efficiency was evaluated using an electrophoretic mobility shift assay (EMSA) on a 2% agarose gel containing 0.5 μg/mL Ethidium bromide and 87 μg/mL BSA and heparin. Activity was evaluated by fragmenting 100 ng Escherichia virus lambda genomic DNA with 1.5 μL MuA complex in 1× Fragmentation Reaction Buffer (Thermo Scientific™ MuSeek™ Library Preparation Kit, Illumina™ compatible, Cat. No. K1361). Fragmentation was carried out for 5 minutes at 30° C., then stopped by adding 4.4% SDS solution.

MuA transposase [2] = biological target: T1, MuA transposase; experiment: EMSA; 8 substitutions (1 sensitive); active (FIG. 13C); conditions: chain copies: 4 (inferred); 5' overhang
Protocol: as §1, §2

MuA transposase [3] = biological target: T1, MuA transposase; experiment: EMSA; 13 substitutions (3 sensitive); active (FIG. 13A); conditions: chain copies: 4 (inferred); 5' overhang
Protocol: as §1, §2

MuA transposase [4] = biological target: T1, MuA transposase; experiment: EMSA; transposome assembly pH 6.0, 10% DMSO, 30 C 1 h; also fragments lambda DNA (FIG. 5A); conditions: chain copies: 4 (inferred); 5' overhang on non-transferred strand
Protocol: (§3) Analysis was carried out on 2% agarose gel containing 0.5 μg/mL Ethidium bromide and 87 μg/mL BSA and heparin. 5 μL of each loaded sample contains 2 μL of each transposome complex, 1 μL 6× TriTrack DNA Loading Dye (Thermo Scientific, Cat. No. R1161) and 2 μL of water. GeneRuler Low Range DNA Ladder (Thermo Scientific, Cat. No. SM1193) was used.
as §1, with “in 30 mM Tris-HCl, pH 6.0, 10% (v/v) glycerol, 0.005% (w/v) Triton X-100, 30 mM NaCl, 0.02 mM EDTA, and 10%” for “in 1× Complex Assembly Buffer with”, “DMSO. The complex” for “DMSO. Complex”, “end (11.2” for “end (9.3”, “were well mixed” for “were well-mixed”
Complex assembly efficiency was evaluated using an electrophoretic mobility shift assay (EMSA) on a 2% agarose gel containing 0.5 μg/mL ethidium bromide and 87 μg/mL BSA and heparin. Activity was evaluated by fragmenting 100 ng Escherichia virus lambda genomic DNA with 1.5 μL MuA complex in 30 μL of 1× Fragmentation Reaction Buffer (Thermo Scientific™ MuSeek™ Library Preparation Kit, Illumina™ compatible, Cat. No. K1361). […]

MuA transposase [5] = biological target: T1, MuA transposase; experiment: EMSA; stable transposome; DMSO, 30 C 1 h; active (FIG. 9); conditions: chain copies: 4 (inferred); 5' overhang
Protocol: as §3, with “FIG. 8 provides EMSA analysis of MuA transposomes that all contain individual unique sequences. Analysis” for “Analysis”, “R1161),” for “R1161)”, “SM1193) marker” for “SM1193)”
as §1, with “with DMSO. The complex assembly reaction” for “with DMSO. Complex assembly reaction”, “well-mixed and placed for incubated for” for “well-mixed and incubated for”

T1 sequence (P07636 whole entry, one chain of several): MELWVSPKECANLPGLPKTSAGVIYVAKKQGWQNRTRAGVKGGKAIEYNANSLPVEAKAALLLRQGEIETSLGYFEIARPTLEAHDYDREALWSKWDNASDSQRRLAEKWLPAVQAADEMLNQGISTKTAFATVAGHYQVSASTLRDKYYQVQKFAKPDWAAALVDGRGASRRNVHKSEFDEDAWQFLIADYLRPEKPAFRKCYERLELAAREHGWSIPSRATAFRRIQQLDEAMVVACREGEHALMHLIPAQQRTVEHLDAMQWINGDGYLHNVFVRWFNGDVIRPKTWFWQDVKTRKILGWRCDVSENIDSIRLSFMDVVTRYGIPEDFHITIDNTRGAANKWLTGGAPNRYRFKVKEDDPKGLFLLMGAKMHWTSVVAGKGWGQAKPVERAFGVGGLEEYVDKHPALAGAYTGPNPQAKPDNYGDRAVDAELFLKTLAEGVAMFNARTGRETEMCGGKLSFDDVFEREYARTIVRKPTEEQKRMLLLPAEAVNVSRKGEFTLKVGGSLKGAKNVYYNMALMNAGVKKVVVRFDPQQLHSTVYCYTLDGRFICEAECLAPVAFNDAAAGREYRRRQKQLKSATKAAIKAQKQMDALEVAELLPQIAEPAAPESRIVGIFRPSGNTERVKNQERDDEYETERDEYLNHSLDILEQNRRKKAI

B1: Tn-SEQ2.1 (dsDNA)
DNA 1: GTTTTCGCTCTTCCGATCTAACGCTTTCGCGTTTTTCGTGCGCCGCTTCA
DNA 2: CTAGTGAAGCGGCGCACGAAAAACGCGAAAGCGTTAGATCGGAAGAGCGAAAAC
- binding result (MuA transposase [1]): binds

B2: Tn-SEQ2.2 (dsDNA)
DNA 1: GTTTTCGCATTTATCGTGAAACGCTTTCGCGTTTTTGCTCTTCCGATCTA
DNA 2: CTAGTAGATCGGAAGAGCAAAAACGCGAAAGCGTTTCACGATAAATGCGAAAAC
- binding result (MuA transposase [2]): binds

B3: Tn-SEQ1 (dsDNA)
DNA 1: GTTTTAGATGTGTATAAGAGACAGTTTCGCGTTTTTCGTGCGCCGCTTCA
DNA 2: CTAGTGAAGCGGCGCACGAAAAACGCGAAACTGTCTCTTATACACATCTAAAAC
- binding result (MuA transposase [3]): binds

B4: Mu-N0 transposon end (control) (dsDNA)
DNA 1: GTTTTCGCATTTATCGTGAAACGCTTTCGCGTTTTTCGTGCGCCGCTTCA
DNA 2: CTAGTGAAGCGGCGCACGAAAAACGCGAAAGCGTTTCACGATAAATGCGAAAAC
- binding result (MuA transposase [4]): binds

B5: ACAT barcode end (dsDNA)
DNA 1: GTTTTCGCATTTATCGTGAAACGCTTTCGCGTTTTTCGTGCGCCACATCA
DNA 2: CTAGTGATGTGGCGCACGAAAAACGCGAAAGCGTTTCACGATAAATGCGAAAAC
- binding result (MuA transposase [5]): binds

B6: CGCA barcode end (dsDNA)
DNA 1: GTTTTCGCATTTATCGTGAAACGCTTTCGCGTTTTTCGTGCGCCCGCACA
DNA 2: CTAGTGTGCGGGCGCACGAAAAACGCGAAAGCGTTTCACGATAAATGCGAAAAC
- binding result (MuA transposase [5]): binds

B7: TATA barcode end (dsDNA)
DNA 1: GTTTTCGCATTTATCGTGAAACGCTTTCGCGTTTTTCGTGCGCCTATACA
DNA 2: CTAGTGTATAGGCGCACGAAAAACGCGAAAGCGTTTCACGATAAATGCGAAAAC
- binding result (MuA transposase [5]): binds

B8: ACGC barcode end (dsDNA)
DNA 1: GTTTTCGCATTTATCGTGAAACGCTTTCGCGTTTTTCGTGCGCCACGCCA
DNA 2: CTAGTGGCGTGGCGCACGAAAAACGCGAAAGCGTTTCACGATAAATGCGAAAAC
- binding result (MuA transposase [5]): binds

B9: AGAG barcode end (dsDNA)
DNA 1: GTTTTCGCATTTATCGTGAAACGCTTTCGCGTTTTTCGTGCGCCAGAGCA
DNA 2: CTAGTGCTCTGGCGCACGAAAAACGCGAAAGCGTTTCACGATAAATGCGAAAAC
- binding result (MuA transposase [5]): binds

B10: CTCT barcode end (dsDNA)
DNA 1: GTTTTCGCATTTATCGTGAAACGCTTTCGCGTTTTTCGTGCGCCCTCTCA
DNA 2: CTAGTGAGAGGGCGCACGAAAAACGCGAAAGCGTTTCACGATAAATGCGAAAAC
- binding result (MuA transposase [5]): binds

B11: TACG barcode end (dsDNA)
DNA 1: GTTTTCGCATTTATCGTGAAACGCTTTCGCGTTTTTCGTGCGCCTACGCA
DNA 2: CTAGTGCGTAGGCGCACGAAAAACGCGAAAGCGTTTCACGATAAATGCGAAAAC
- binding result (MuA transposase [5]): binds

B12: GTAC barcode end (dsDNA)
DNA 1: GTTTTCGCATTTATCGTGAAACGCTTTCGCGTTTTTCGTGCGCCGTACCA
DNA 2: CTAGTGGTACGGCGCACGAAAAACGCGAAAGCGTTTCACGATAAATGCGAAAAC
- binding result (MuA transposase [5]): binds

B13: GCGT barcode end (dsDNA)
DNA 1: GTTTTCGCATTTATCGTGAAACGCTTTCGCGTTTTTCGTGCGCCGCGTCA
DNA 2: CTAGTGACGCGGCGCACGAAAAACGCGAAAGCGTTTCACGATAAATGCGAAAAC
- binding result (MuA transposase [5]): binds

B14: CATG barcode end (dsDNA)
DNA 1: GTTTTCGCATTTATCGTGAAACGCTTTCGCGTTTTTCGTGCGCCCATGCA
DNA 2: CTAGTGCATGGGCGCACGAAAAACGCGAAAGCGTTTCACGATAAATGCGAAAAC
- binding result (MuA transposase [5]): binds

B15: TTTC barcode end (dsDNA)
DNA 1: GTTTTCGCATTTATCGTGAAACGCTTTCGCGTTTTTCGTGCGCCTTTCCA
DNA 2: CTAGTGGAAAGGCGCACGAAAAACGCGAAAGCGTTTCACGATAAATGCGAAAAC
- binding result (MuA transposase [5]): binds

B16: GGGA barcode end (dsDNA)
DNA 1: GTTTTCGCATTTATCGTGAAACGCTTTCGCGTTTTTCGTGCGCCGGGACA
DNA 2: CTAGTGTCCCGGCGCACGAAAAACGCGAAAGCGTTTCACGATAAATGCGAAAAC
- binding result (MuA transposase [5]): binds
